Assay results: publication PMC12109978

B1: human tropomodulin 1 (Tmod1) (natural protein)
chain: MSYRRELEKYRDLDEDEILGALTEEELRTLENELDELDPDNALLPAGLRQKDQTTKAPTGPFKREELLDHLEKQAKEFKDREDLVPYTGEKRGKVWVPKQKPLDPVLESVTLEPELEEALANASDAELCDIAAILGMHTLMSNQQYYQALSSSSIMNKEGLNSVIKPTQYKPVPDEEPNSTDVEETLERIKNNDPKLEEVNLNNIRNIPIPTLKAYAEALKENSYVKKFSIVGTRSNDPVAYALAEMLKENKVLKTLNVESNFISGAGILRLVEALPYNTSLVEMKIDNQSQPLGNKVEMEIVSMLEKNATLLKFGYHFTQQGPRLRASNAMMNNNDLVRKRRLADLTGPIIPKCRSGV

Tests used:
[1] = target: human tropomodulin 4 (Tmod4) (human) (UniProt Q9NZQ9); assay: pull-down; His-tagged Tmod4 (6 µM) incubated 20 min with 3 to 24 µM Tpm in 30 mM HEPES-Na, 200 mM NaCl, pH 7.3, then captured on IMAC Ni-charged resin, eluted with 500 mM imidazole; SDS-PAGE, densitometry
Chain of UniProt Q9NZQ9 (Q9NZQ9 whole entry): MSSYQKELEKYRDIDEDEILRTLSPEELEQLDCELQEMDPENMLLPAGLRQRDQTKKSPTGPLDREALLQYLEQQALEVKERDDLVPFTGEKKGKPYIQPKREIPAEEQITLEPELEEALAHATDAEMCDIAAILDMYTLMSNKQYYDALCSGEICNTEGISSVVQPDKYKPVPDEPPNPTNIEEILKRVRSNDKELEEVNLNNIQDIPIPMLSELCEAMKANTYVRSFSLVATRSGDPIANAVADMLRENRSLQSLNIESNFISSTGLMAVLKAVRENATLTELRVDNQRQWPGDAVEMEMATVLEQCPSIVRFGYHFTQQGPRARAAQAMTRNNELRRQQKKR

[2] = target: human tropomodulin 1 (Tmod1) (human) (UniProt P28289); assay: SEC; Superose 6 Increase 10/300 GL, 50 mM HEPES-Na pH 7.3, 150 mM NaCl, 1 mM DTT, 0.5 mL/min, 280 nm; 30 µM Tpm and Tmod1, or 26 µM Tpm and 13 µM Tmod4; single proteins and mixtures
[3] = target: human tropomyosin Tpm1.1 with Ala-Ser N-terminal extension (human)

Row | Molecule | Tpm/Tmod ratio at which saturation is reached (Tpm/Tmod ratio) [1] | stoichiometry N (Tpm1.1 per Tmod1) [2] | decrease of the sliding velocity of thin filaments containing Tpm1.1 over sheep ventricular myosin at pCa 5.2 by 500 nM Tmod1 [3] [%]
1 | human tropomyosin Tpm1.2 with Ala-Ser N-terminal extension (natural protein) | 2.5 | – | –
2 | human tropomyosin Tpm1.1 with Ala-Ser N-terminal extension (natural protein) | 3 | 2 | –
3 | B1 | – | – | 30
